The target of the assay is fibronectin receptors (alpha5beta1) on the adherent CHO cell line (Chinese hamster (endogenous in CHO)). Put plainly: radioligand binding.

Results on one substance are retold here after publication PMC2119780.

In general, Kd refers to the equilibrium constant for the complex coming apart. Low readings indicate a tighter complex, high ones a looser complex. In turn, “human plasma fibronectin (ligand; labeled with 125Iodine (modified Chloramine-T procedure) in the binding assays)” showed a Kd of 95 nM.
